In article PMC3904923:

How the values were obtained:
[1] = target: Kv7.2 helix B (hB residues S450–S590) (human); assay: other fluorescence titration; competition: 12.5 nM D-CaM mixed with helix A (46.4 nM) or helix B (20.1 nM), isolated lobe added incrementally; no Ca2+; one site Hill fit, Kd derived assuming 1:1 binding
[2] = target: Kv7.2 helix B (hB residues S450–S590) (human); assay: other fluorescence titration; competition: 12.5 nM D-CaM mixed with helix A (65.6 nM) or helix B (42.6 nM), isolated lobe added incrementally; with Ca2+; one site Hill fit, Kd derived assuming 1:1 binding
[3] = target: dansylated calmodulin (rat) (UniProt P0DP30); assay: other fluorescence titration; 12.5 nM D-CaM, ligand added incrementally, enhancement of dansyl emission; 25 mM Tris-HCl, 120 mM KCl, 5 mM NaCl, 2 mM MgCl2, 10 mM EGTA, pH 7.4; no free Ca2+; apparent affinity (EC50 of a Hill fit)
[4] = target: dansylated calmodulin (rat) (UniProt P0DP30); assay: other fluorescence titration; 12.5 nM D-CaM, ligand added incrementally, enhancement of dansyl emission; D-CaM binding buffer with 3.9 µM free Ca2+ (9.63 mM Ca2+, 2 mM Mg2+, 10 mM EGTA, pH 7.4); apparent affinity (EC50 of a Hill fit)

IC50 [1] | Kd [1] | IC50 [2] | Kd [2] | EC50 [3] | EC50 [4] | Substance
0.238 µM | 0.231 µM | 0.244 µM | 0.229 µM |  |  | CaM C-lobe (residues 79–148) (from UniProt P0DP23 80-149) (domain or fragment)
0.13 µM | 0.119 µM | 0.415 µM | 0.414 µM |  |  | CaM N-lobe (residues 1–78) (from UniProt P0DP23 2-79) (domain or fragment)
 |  |  |  | 0.011 µM | 0.0271 µM | Kv7.2 CaM binding domain (residues 310–548), Q2AB WT (domain or fragment)
 |  |  |  | 0.0201 µM | 0.0426 µM | Kv7.2 helix B (hB residues S450–S590) (domain or fragment)
